Data published in patent US10704030B2, “P450-BM3 variants with improved activity” (Codexis, Inc., priority 2015, dated 2020).

Key:
Format in all cases: biochemical
[1] = Validation of generalist properties: oxidation of diclofenac by lyophilized P450-BM3 variant, UPLC-MS; conditions: [Diclofenac] = 1 mM
How it was run: (§1)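 Lyophilized lysate of E. coli-expressed P450-BM3 variant (stock standardized to 12 μM heme) was incubated 24 h at 30 °C with 1 or 2 mM substrate, 1.0 mM NADP+, 25 mM glucose, 0.5 mg/mL glucose dehydrogenase and 5% DMSO in 100 mM potassium phosphate. Acetonitrile-quenched samples were analyzed by UPLC-MS (positive ESI).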

[2] = Validation of generalist properties: oxidation of loratadine by lyophilized P450-BM3 variant, UPLC-MS; conditions: [Loratadine] = 1 mM
How it was run: as §1

[3] = Validation of generalist properties: oxidation of imatinib by lyophilized P450-BM3 variant, UPLC-MS; conditions: [Imatinib] = 1 mM
How it was run: as §1

[4] = Validation of generalist properties: oxidation of gefitinib by lyophilized P450-BM3 variant, UPLC-MS; conditions: [Gefitinib] = 1 mM
How it was run: as §1

[5] = TON = [substrate]*% conversion/[P450]
[6] = fold improvement over parent MCYP-P1.2-B12

B1: Variant 4: P450-BM3 variant of SEQ ID NO: 10: K32R; C48S; Y52F; I95P; Q111R; L216Y; D232H; P347T; E349K; M491A; N574T; E619D; D722S (protein)
chain: MTIKEMPQPKTFGELKNLPLLNTDKPVQALMRIADELGEIFKFEAPGSVTRFLSSQRLIKEACDESRFDKNLSQALKFARDFAGDGLATSWTHEPNWKKAHNILLPSFSQRAMKGYHAMMVDIAVQLVQKWERLNADEHIEVSEDMTRLTLDTIGLCGFNYRFNSFYRDQPHPFIISMVRALDEVMNKLQRANPDDPAYDENKRQCQEDIKVMNDYVDKIIADRKARGEQSHDLLTQMLNGKDPETGEPLDDGNISYQIITFLIAGHETTSGLLSFALYFLVKNPHVLQKVAEEAARVLVDPVPSYKQVKQLKYVGMVLNEALRLWPTAPAFSLYAKEDTVLGGEYTLKKGDEVMVLIPQLHRDKTIWGDDVEEFRPERFENPSAIPQHAFKPFGNGQRACIGQQFALHEATLVLGMMLKHFDFEDHTNYELDIKETLTLKPEGFVVKAKSKKIPLGGIPSPSTEQSAKKVRKKAENAHNTPLLVLYGSNAGTAEGTARDLADIAMSKGFAPQVATLDSHAGNLPREGAVLIVTASYNGHPPDNAKQFVDWLDQASADEVKGVRYSVFGCGDKTWATTYQKVPAFIDETLAAKGAENIADRGEADASDDFEGTYEEWRDHMWSDVAAYFNLDIENSEDNKSTLSLQFVDSAADMPLAKMHGAFSTNVVASKELQQPGSARSTRHLEIELPKEASYQEGDHLGVIPRNYEGIVNRVTARFGLSASQQIRLEAEEEKLAHLPLAKTVSVEELLQYVELQDPVTRTQLRAMAAKTVCPPHKVELEALLEKQAYKEQVLAKRLTMLELLEKYPACEMKFSEFIALLPSIRPRYYSISSSPRVDEKQASITVSVVSGEAWSGYGEYKGIASNYLAELQEGDTITCFISTPQSEFTLPKDPETPLIMVGPGTGVAPFRGFVQARKQLKEQGQSLGEAHLYFGCRSPHEDYLYQEELENAQSEGIITLHTAFSRMPNQPKTYVQHVMEQDGKKLIELLDQGAHFYICGDGSQMAPAVEATLMKSYADVHQVSEADARLWLQQLEEKGRYAKDVWAG
modifications: P450_BM3
notes: C48S; Y52F; I95P; Q111R; L216Y; D232H; P347T; E349K; M491A; N574T; E619D; D722S
* (0.0-3.0): FIOPC (B12) [1, 6] | FIOPC (B12) [2, 6]
++++ (15.01-20.00): % Conv. [1] | % Conv. [2] | % Conv. [3] | % Conv. [4]
‡‡‡‡ (10000-50000): TON [1, 5] | TON [2, 5] | TON [3, 5] | TON [4, 5]
*** (5.01-10.0): FIOPC (B02) ([3]; fold improvement over parent MCYP-P1.2-B02) | FIOPC (B12) [4, 6]
